From article doi:10.1101/2023.12.22.572193

Target: PfCoronin^R100K/E107V-smHA (P. falciparum (Pikine isolate, SenP019.04))
Experiment: affinity purification with mass spectrometry

PfActin (from UniProt Q8I4X0 1-376) (natural protein)
fold reduction of normalised abundance against PfCoronin^WT-smHA: 3 fold
